According to paper PMC1405818:

Assays:
LEDGF/p75 93-226 = LEDGF/p75 93-226 (human, UniProt O75475 93-226); experiment: EMSA
LEDGF/p75 wild type [1] = molecular target: T1, LEDGF/p75 wild type (human, UniProt O75475 1-530); experiment: EMSA
[2] = molecular target: LEDGF/p75 347-530 (IBD fragment) (human, UniProt O75475 347-530); experiment: EMSA
[3] = molecular target: LEDGF/p75 1-116 (PWWP domain) (human, UniProt O75475 1-116); experiment: EMSA
LEDGF/p75 wild type [4] = molecular target: T1, LEDGF/p75 wild type; experiment: EMSA; remark: listed apart in the source
LEDGF/p75 wild type [5] = molecular target: T1, LEDGF/p75 wild type; experiment: SPR
LEDGF/p75 wild type [6] = molecular target: T1, LEDGF/p75 wild type; experiment: SPR; remark: listed apart in the source
MutL3 = MutL3 (human, UniProt O75475 1-530, R180A;G181A;R182A;R194A;G195A;R196A); experiment: SPR
MutL4 = MutL4 (human, UniProt O75475 1-530, R180A;G181A;R182A); experiment: SPR
MutL5 = MutL5 (human, UniProt O75475 1-530, R194A;G195A;R196A); experiment: SPR
MutL5, sequence (O75475 whole entry R194A/G195A/R196A): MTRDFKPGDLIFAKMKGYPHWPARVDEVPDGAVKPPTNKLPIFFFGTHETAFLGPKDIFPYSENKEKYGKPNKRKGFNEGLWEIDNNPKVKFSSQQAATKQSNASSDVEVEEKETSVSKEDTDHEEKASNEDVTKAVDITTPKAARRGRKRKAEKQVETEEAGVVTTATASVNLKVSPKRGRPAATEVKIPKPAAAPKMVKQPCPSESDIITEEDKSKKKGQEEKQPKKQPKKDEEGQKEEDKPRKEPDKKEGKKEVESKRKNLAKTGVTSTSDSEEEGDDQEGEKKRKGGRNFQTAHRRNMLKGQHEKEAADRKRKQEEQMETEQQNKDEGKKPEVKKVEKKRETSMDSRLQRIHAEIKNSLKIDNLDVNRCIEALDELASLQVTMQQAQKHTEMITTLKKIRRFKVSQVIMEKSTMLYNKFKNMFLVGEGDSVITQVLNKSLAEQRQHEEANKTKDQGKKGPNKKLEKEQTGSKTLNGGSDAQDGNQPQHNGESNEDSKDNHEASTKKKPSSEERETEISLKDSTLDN

T1 sequence (O75475 whole entry, the tested form may be a part): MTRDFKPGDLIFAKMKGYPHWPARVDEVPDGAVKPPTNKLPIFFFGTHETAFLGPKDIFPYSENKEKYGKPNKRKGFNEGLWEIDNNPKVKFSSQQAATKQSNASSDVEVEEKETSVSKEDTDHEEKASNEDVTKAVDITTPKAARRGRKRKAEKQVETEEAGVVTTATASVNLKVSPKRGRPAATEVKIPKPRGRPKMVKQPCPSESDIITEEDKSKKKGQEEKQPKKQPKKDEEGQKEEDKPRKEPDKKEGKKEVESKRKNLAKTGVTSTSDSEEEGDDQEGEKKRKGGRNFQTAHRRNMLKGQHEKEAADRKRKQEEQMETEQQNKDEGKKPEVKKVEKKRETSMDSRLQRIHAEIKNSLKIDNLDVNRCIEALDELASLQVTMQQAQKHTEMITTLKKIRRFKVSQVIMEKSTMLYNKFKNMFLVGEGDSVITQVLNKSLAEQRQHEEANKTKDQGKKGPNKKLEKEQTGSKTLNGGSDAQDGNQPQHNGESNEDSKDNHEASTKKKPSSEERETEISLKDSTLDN
LEDGF/p75 93-226, sequence (O75475 93-226): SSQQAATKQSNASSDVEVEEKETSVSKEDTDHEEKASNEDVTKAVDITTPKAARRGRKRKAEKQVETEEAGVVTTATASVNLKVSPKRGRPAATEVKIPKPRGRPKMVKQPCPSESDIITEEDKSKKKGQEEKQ
MutL3, sequence (O75475 whole entry R180A/G181A/R182A/R194A/G195A/R196A): as the sequence (O75475 whole entry R194A/G195A/R196A) above, with R180A, G181A, R182A counted along it
MutL4, sequence (O75475 whole entry R180A/G181A/R182A): as the sequence (O75475 whole entry R194A/G195A/R196A) above, with R180A, G181A, R182A, A194R, A195G, A196R counted along it
LEDGF/p75 347-530 (IBD fragment), sequence (O75475 347-530): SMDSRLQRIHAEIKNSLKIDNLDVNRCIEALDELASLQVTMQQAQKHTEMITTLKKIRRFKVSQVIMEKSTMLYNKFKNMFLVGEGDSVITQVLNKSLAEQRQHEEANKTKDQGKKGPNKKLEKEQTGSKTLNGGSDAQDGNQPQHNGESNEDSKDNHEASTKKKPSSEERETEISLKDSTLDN
LEDGF/p75 1-116 (PWWP domain), sequence (O75475 1-116): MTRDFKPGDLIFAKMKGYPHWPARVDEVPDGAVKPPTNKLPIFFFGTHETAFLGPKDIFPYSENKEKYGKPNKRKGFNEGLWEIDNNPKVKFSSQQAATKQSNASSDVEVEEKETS

B1: Mut2 EMSA duplex (AE2001/AE2002) (dsDNA)
DNA 1: TTAACGAGATAATTTTACAGA
DNA 2: TCTGTAAAATTATCTCGTTAA
binding result (LEDGF/p75 93-226): binds | binding result (LEDGF/p75 wild type [1]): binds

B2: Mut1 EMSA duplex (AE1199/AE2000) (dsDNA)
DNA 1: TTAACTAAATAAATTTTAAAA
DNA 2: TTTTAAAATTTATTTAGTTAA
binding result [2]: no binding | binding result [3]: no binding | binding result (LEDGF/p75 wild type [4]): binds

B3: Mut2 SPR duplex (AE2043/AE2002) (dsDNA)
DNA 1: GATTTAACGAGATAATTTTACAGA
DNA 2: TCTGTAAAATTATCTCGTTAA
binding result (LEDGF/p75 wild type [5]): binds

B4: Mut1 SPR duplex (AE2042/AE2000) (dsDNA)
DNA 1: GATTTAACTAAATAAATTTTAAAA
DNA 2: TTTTAAAATTTATTTAGTTAA
binding signal (LEDGF/p75 wild type [6]): 100 % of WT stably bound | binding signal (MutL3): ~7 % of WT stably bound | binding signal (MutL4): ~45 % of WT stably bound | binding signal (MutL5): ~13 % of WT stably bound

B5: HSE EMSA duplex (AE1197/AE1198) (dsDNA)
DNA 1: TTAACGAGAGAAGGTTCCAGA
DNA 2: TCTGGAACCTTCTCTCGTTAA
binding result (LEDGF/p75 93-226): binds | binding result (LEDGF/p75 wild type [1]): binds

B6: HSE SPR duplex (AE2019/AE1198) (dsDNA)
DNA 1: GATTTAACGAGAGAAGGTTCCAGA
DNA 2: TCTGGAACCTTCTCTCGTTAA
binding result (LEDGF/p75 wild type [5]): binds
